{
  "source": "patent US20240327517A1",
  "about": "(SUZHOU SMARTNUCLIDE BIOPHARMACEUTICAL, published 2024)",
  "data": [
    {"target": "T1, PROTEIN A (packing of the PROTEIN A affinity chromatography) (UniProt P38507 37-327, limits assumed)", "assay": "binding to the Protein A affinity packing", "values": [
      {"binder": "C37-ST-YS (VHH, Mutant of section 1.1 (Protein A test); No tag is mentioned for this section) VHH: QLQLVESGGGLVQAGGSLRLSCAASGLTFEDYAIGWFRQAPGKEREGISCIRIYDGNTYYAESVKGRFTISSDNAKNQVYLQINSLKPEDTAVYYCAAGSYYSCSVYPDYDMDYWGKGTLVTVSS", "binding result": "no binding"},
      {"binder": "C37-YDMS (VHH, Mutant of section 1.1 (Protein A test); No tag is mentioned for this section) VHH: QLQLVESGGGLVQAGGSLRLSCAASGLTFEDYAIGWFRQAPGKEREGISCIRIYDGNTYYADSVKGRFTISSDNAKNQVYLQMNSLKPEDTAVYYCAAGSYYSCSVYPDYDMDYWGKGTLVTVSS", "binding result": "no binding"},
      {"binder": "C37-S60Y (VHH, Mutant of section 1.1 (Protein A test); No tag is mentioned for this section) VHH: QLQLVESGGGLVQAGGSLRLSCAASGLTFEDYAIGWFRQAPGKEREGISCIRIYDGNTYYAESVKGRFTISSDNAKNQVYLQINTLKPEDTAVYYCAAGSYYSCSVYPDYDMDYWGKGTLVTVSS", "binding result": "no binding"},
      {"binder": "C37-YDS (VHH, Mutant of section 1.1 (Protein A test); No tag is mentioned for this section) VHH: QLQLVESGGGLVQAGGSLRLSCAASGLTFEDYAIGWFRQAPGKEREGISCIRIYDGNTYYADSVKGRFTISSDNAKNQVYLQINSLKPEDTAVYYCAAGSYYSCSVYPDYDMDYWGKGTLVTVSS", "binding result": "no binding"},
      {"binder": "C37-YMS (VHH, Mutant of section 1.1 (Protein A test); No tag is mentioned for this section) VHH: QLQLVESGGGLVQAGGSLRLSCAASGLTFEDYAIGWFRQAPGKEREGISCIRIYDGNTYYAESVKGRFTISSDNAKNQVYLQMNSLKPEDTAVYYCAAGSYYSCSVYPDYDMDYWGKGTLVTVSS", "binding result": "no binding"}
    ]},
    {"target": "T1, PROTEIN A (packing of the PROTEIN A …)", "assay": "Protein A affinity chromatography of HEK293-expressed protein, SDS-PAGE of fractions", "from_the_text": "After preliminary screening and identification, C37-cHis was selected as a final antibody sequence (including a histidine tag) from candidate antibodies, and meanwhile, an untagged recombinant plasmid C37 was constructed. HEK293 cells were transfected with the single-domain antibody C37 fusion protein plasmid constructed by the above recombination for expression of an antibody. […] Therefore, it was necessary to optimize the sequence of the C37 antibody to allow purification of the C37 antibody by affinity chromatography.\nThe recombinant plasmid C37 and the mutated recombinant plasmid C37-YDHMS were subjected to antibody expression via the HEK293 cells, respectively, and purification was conducted by means of the packing of the PROTEIN A affinity chromatography, in order to verify the binding to the affinity packing after the mutations.", "values": [
      {"binder": "C37 single-domain antibody (untagged) (VHH, The untagged construct was expressed in HEK293 and used in the Protein A test; also called C37 antibody) VHH: QLQLVESGGGLVQAGGSLRLSCAASGLTFEDYAIGWFRQAPGKEREGISCIRIYDGNTYSAESVKGRFTISSDNAKNQVYLQINTLKPEDTAVYYCAAGSYYSCSVYPDYDMDYWGKGTLVTVSS", "binding result": "no binding"}
    ]},
    {"target": "T2, CD8α Fc fusion protein (UniProt P01732 22-182, limits assumed)", "T2 construct": "Used as the coating antigen of the ELISAs; also called CD8α antigen; CD8α protein; not shown: Fc part", "T2 sequence (P01732 22-182 limits assumed)": "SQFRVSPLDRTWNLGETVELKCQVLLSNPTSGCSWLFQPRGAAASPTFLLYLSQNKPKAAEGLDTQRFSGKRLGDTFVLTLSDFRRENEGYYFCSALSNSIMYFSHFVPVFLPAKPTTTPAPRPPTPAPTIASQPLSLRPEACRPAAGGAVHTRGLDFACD", "assay": "ELISA, plate coated with CD8α Fc fusion protein, anti-His-HRP detection, 4-parameter fit; relative to C37", "from_the_text": "The expression level and binding activity of each mutant were separately detected. For the sake of detection, a histidine-tagged recombinant plasmid was used in this section for transient transfection, after which a recombinant protein was purified by affinity chromatography with a corresponding Ni+ resin gel, thereby obtaining a protein of interest for direct use in the detection of expression level and binding activity.\n(§1) After washing, an anti-His horseradish peroxidase-labeled antibody was added to allow reaction for 1 hour at room temperature. After washing, a chromogenic solution was added, and an absorption value was read at a wavelength of 450 nm. The software SotfMaxPro v5.4 was used for data processing and diagraph analysis; four-parameter fitting was performed to obtain the binding curve of the mutated antibody to CD8α; and different mutants were compared in relative activity with the C37 antibody as a control, in order to reflect the affinity of the antibody to CD8α.", "units": {"Relative activity (%)": "%"}, "values": [
      {"binder": "C37-S72R (histidine-tagged) (VHH, not shown: histidine tag) VHH: QLQLVESGGGLVQAGGSLRLSCAASGLTFEDYAIGWFRQAPGKEREGISCIRIYDGNTYSAESVKGRFTISRDNAKNQVYLQINTLKPEDTAVYYCAAGSYYSCSVYPDYDMDYWGKGTLVTVSS", "Relative activity (%)": 115},
      {"binder": "C37-D111A (histidine-tagged) (VHH, not shown: histidine tag) VHH: QLQLVESGGGLVQAGGSLRLSCAASGLTFEDYAIGWFRQAPGKEREGISCIRIYDGNTYSAESVKGRFTISSDNAKNQVYLQINTLKPEDTAVYYCAAGSYYSCSVYPDYAMDYWGKGTLVTVSS", "Relative activity (%)": 84.6},
      {"binder": "C37-RSA (histidine-tagged) (VHH, not shown: histidine tag) VHH: QLQLVESGGGLVQAGGSLRLSCAASGLTFEDYAIGWFRQAPGKEREGISCIRIYDGNTYSAESVKGRFTISRDNAKNQVYLQINSLKPEDTAVYYCAAGSYYSCSVYPAYDMDYWGKGTLVTVSS", "Relative activity (%)": 103},
      {"binder": "C37-E30S (histidine-tagged) (VHH, not shown: histidine tag) VHH: QLQLVESGGGLVQAGGSLRLSCAASGLTFSDYAIGWFRQAPGKEREGISCIRIYDGNTYSAESVKGRFTISSDNAKNQVYLQINTLKPEDTAVYYCAAGSYYSCSVYPDYDMDYWGKGTLVTVSS", "Relative activity (%)": 126},
      {"binder": "C37-D109A (histidine-tagged) (VHH, not shown: histidine tag) VHH: QLQLVESGGGLVQAGGSLRLSCAASGLTFEDYAIGWFRQAPGKEREGISCIRIYDGNTYSAESVKGRFTISSDNAKNQVYLQINTLKPEDTAVYYCAAGSYYSCSVYPAYDMDYWGKGTLVTVSS", "Relative activity (%)": 476},
      {"binder": "C37-RA (histidine-tagged) (VHH, not shown: histidine tag) VHH: QLQLVESGGGLVQAGGSLRLSCAASGLTFEDYAIGWFRQAPGKEREGISCIRIYDGNTYSAESVKGRFTISRDNAKNQVYLQINTLKPEDTAVYYCAAGSYYSCSVYPAYDMDYWGKGTLVTVSS", "Relative activity (%)": 108},
      {"binder": "C37-D31Y (histidine-tagged) (VHH, not shown: histidine tag) VHH: QLQLVESGGGLVQAGGSLRLSCAASGLTFEYYAIGWFRQAPGKEREGISCIRIYDGNTYSAESVKGRFTISSDNAKNQVYLQINTLKPEDTAVYYCAAGSYYSCSVYPDYDMDYWGKGTLVTVSS", "Relative activity (%)": 48.4},
      {"binder": "C37-SRS (histidine-tagged) (VHH, not shown: histidine tag) VHH: QLQLVESGGGLVQAGGSLRLSCAASGLTFSDYAIGWFRQAPGKEREGISCIRIYDGNTYSAESVKGRFTISRDNAKNQVYLQINSLKPEDTAVYYCAAGSYYSCSVYPDYDMDYWGKGTLVTVSS", "Relative activity (%)": 33},
      {"binder": "C37-SR (histidine-tagged) (VHH, not shown: histidine tag) VHH: QLQLVESGGGLVQAGGSLRLSCAASGLTFSDYAIGWFRQAPGKEREGISCIRIYDGNTYSAESVKGRFTISRDNAKNQVYLQINTLKPEDTAVYYCAAGSYYSCSVYPDYDMDYWGKGTLVTVSS", "Relative activity (%)": 42},
      {"binder": "C37-SRA (histidine-tagged) (VHH, not shown: histidine tag) VHH: QLQLVESGGGLVQAGGSLRLSCAASGLTFSDYAIGWFRQAPGKEREGISCIRIYDGNTYSAESVKGRFTISRDNAKNQVYLQINTLKPEDTAVYYCAAGSYYSCSVYPAYDMDYWGKGTLVTVSS", "Relative activity (%)": 40},
      {"binder": "C37-T85S (histidine-tagged, section 1.2) (VHH, not shown: histidine tag) VHH: QLQLVESGGGLVQAGGSLRLSCAASGLTFEDYAIGWFRQAPGKEREGISCIRIYDGNTYSAESVKGRFTISSDNAKNQVYLQINSLKPEDTAVYYCAAGSYYSCSVYPDYDMDYWGKGTLVTVSS", "Relative activity (%)": 162},
      {"binder": "C37-SA (histidine-tagged) (VHH, not shown: histidine tag) VHH: QLQLVESGGGLVQAGGSLRLSCAASGLTFEDYAIGWFRQAPGKEREGISCIRIYDGNTYSAESVKGRFTISSDNAKNQVYLQINSLKPEDTAVYYCAAGSYYSCSVYPAYDMDYWGKGTLVTVSS", "Relative activity (%)": 257},
      {"binder": "C37-M112L (histidine-tagged) (VHH, not shown: histidine tag) VHH: QLQLVESGGGLVQAGGSLRLSCAASGLTFEDYAIGWFRQAPGKEREGISCIRIYDGNTYSAESVKGRFTISSDNAKNQVYLQINTLKPEDTAVYYCAAGSYYSCSVYPDYDLDYWGKGTLVTVSS", "Relative activity (%)": 206},
      {"binder": "C37-TMS (histidine-tagged) (VHH, not shown: histidine tag) VHH: QLQLVESGGGLVQAGGSLRLSCAASGLTFEDYAIGWFRQAPGKEREGISCIRIYDGNTYSAESVKGRFTISSDNAKNTVYLQMNSLKPEDTAVYYCAAGSYYSCSVYPDYDMDYWGKGTLVTVSS", "Relative activity (%)": 107},
      {"binder": "C37-KL-QQ (histidine-tagged) (VHH, not shown: histidine tag) VHH: QLQLVESGGGLVQAGGSLRLSCAASGLTFEDYAIGWFRQAPGKEREGISCIRIYDGNTYSAESVKGRFTISSDNAKNQVYLQINTLKPEDTAVYYCAAGSYYSCSVYPDYDMDYWGQGTQVTVSS", "Relative activity (%)": 141}
    ]},
    {"target": "T2, CD8α Fc fusion protein", "assay": "affinity detection of humanized variants (method not restated; taken as the CD8α Fc ELISA of section 1.2); relative to C37-F1", "experimental": "as §1", "units": {"Relative activity (%)": "%"}, "values": [
      {"binder": "C37-H3 (humanized variant of C37-F1) (VHH) VHH: QVQLVESGGGLVQPGGSLRLSCAASGLTFSDYAIGWFRQAPGKEREGISCIRIYDGNTYYADSVKGRFTISRDNAKNHVYLQMNSLRAEDTAVYYCAAGSYYSCSVYPAYDLDYWGKGTLVTVSS", "Relative activity (%)": 171},
      {"binder": "C37-H4 (humanized variant of C37-F1) (VHH) VHH: QVQLVESGGGLVQPGGSLRLSCAASGLTFSDYAIGWFRQAPGKEREGISCIRIYDGNTYYADSVKGRFTISRDNSKNHVYLQMNSLKPEDTAVYYCAAGSYYSCSVYPAYDLDYWGKGTLVTVSS", "Relative activity (%)": 141},
      {"binder": "C37H (humanized variant of C37-F1) (VHH) VHH: QVQLVESGGGLVQPGGSLRLSCAASGLTFSDYAIGWFRQAPGKEREGISCIRIYDGNTYYADSVKGRFTISRDNSKNHVYLQMNSLRAEDTAVYYCAAGSYYSCSVYPAYDLDYWGKGTLVTVSS", "Relative activity (%)": 151},
      {"binder": "C37-H2 (humanized variant of C37-F1) (VHH) VHH: QVQLVESGGGLVQPGGSLRLSCAASGLTFSDYAIGWFRQAPGKEREGISCIRIYDRNTYYADSVKGRFTISRDNSKNHVYLQMNSLRAEDTAVYYCAAGSYYSCSVYPAYDLDYWGQGTLVTVSS", "Relative activity (%)": 122},
      {"binder": "C37-H1 (humanized variant of C37-F1) (VHH) VHH: QVQLVESGGGLVQPGGSLRLSCAASGLTFSDYAIGWFRQAPGKEREGISCIRIYDGRTYYADSVKGRFTISRDNSKNHVYLQMNSLRAEDTAVYYCAAGSYYSCSVYPAYDLDYWGQGTLVTVSS", "Relative activity (%)": 110}
    ]}
  ]
}
